{"source": "IntAct's records for PubMed 16272220", "key": {"trx1_yeast TRX1": {"molecular_target": "T1, trx1_yeast TRX1 (UniProt P22217)", "T1 sequence": "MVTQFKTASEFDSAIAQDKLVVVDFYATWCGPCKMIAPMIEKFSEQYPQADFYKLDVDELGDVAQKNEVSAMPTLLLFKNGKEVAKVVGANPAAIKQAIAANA"}, "trx2_yeast TRX2": {"molecular_target": "T2, trx2_yeast TRX2 (UniProt P22803)", "T2 sequence": "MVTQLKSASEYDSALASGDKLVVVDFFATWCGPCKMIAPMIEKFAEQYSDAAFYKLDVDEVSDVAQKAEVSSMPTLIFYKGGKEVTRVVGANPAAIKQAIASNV"}}, "data": [{"substance": "Phosphoadenosine phosphosulfate reductase (Saccharomyces cerevisiae) (from UniProt P18408) C245S", "values": [{"measurement": "effect of a mutation on the interaction", "setting": "trx1_yeast TRX1", "result": "decreasing interaction"}, {"measurement": "effect of a mutation on the interaction", "setting": "trx2_yeast TRX2", "result": "decreasing interaction"}]}]}
